Our source for the Kd values is PMC9347351 (2022).

In one assay the target is L-pY peptide (phosphotyrosine (pY) at the fourth residue; 5-carboxyfluorescein on the N-terminus; C-terminal amide). Put plainly: ITC.
The target of another assay is T1, AS25 (synthetic construct (Homo sapiens …)).
T1 chain: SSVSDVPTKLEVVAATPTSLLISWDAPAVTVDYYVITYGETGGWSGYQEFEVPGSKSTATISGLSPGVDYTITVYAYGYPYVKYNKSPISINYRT
Put plainly: ITC.

B1: synthetic L-Bcr-Abl SH2 domain (domain or fragment)
chain: KKKKKSGVNSLEKHSWYHGPVSRNAAEYLLSSGINGSFLVRESESSPGQRSISLRYEGRVYHYRINTASDGKLYVSSESRFNTLAELVHHHSTVADGLITTLHYPAPKRNK
modifications: biotinylated (position of the biotin not stated in the text shown)
As for B1, the figures for the Kd in the assay with L-pY peptide and in the assay with AS25 were 4890 nM and 184 nM, respectively.
